From publication PMC4092071

Key:
Experiment in all cases: equilibrium inhibitor binding assay (free trypsin by residual activity on a fluorogenic substrate); BPTI variants (0-100 pM) and trypsin (50 pM) in solution, 15 h at 22°C, 0.1 M Tris-HCl (pH 8.0), 1 mM CaCl2, 0.05% Tween 20; free trypsin from cleavage of Z-Gly-Pro-Arg-AMC; free protease against total inhibitor fitted with a quadratic equation
[1] = target: non-sulfated human anionic trypsin (human) (UniProt P07478)
[2] = target: sulfated human cationic trypsin (human)
[3] = target: sulfated human anionic trypsin (human) (UniProt P07478)
[4] = target: non-sulfated human cationic trypsin (human)

Substance	Kd [1]	Kd [2]	Kd [3]	Kd [4]
BPTI variant carrying Ile at P2′ (P1′ Ala, P3′ Asp, P4′ Ile, P19′ Val) (designed binder)	0.3 pM	3.2 pM	1.3 pM	0.5 pM
BPTI variant carrying Arg at P2′ (P1′ Ala, P3′ Asp, P4′ Ile, P19′ Val) (designed binder)	0.7 pM	1 pM	0.4 pM	0.9 pM
BPTI variant carrying Leu at P2′ (P1′ Ala, P3′ Asp, P4′ Ile, P19′ Val) (designed binder)	1.2 pM	13.4 pM	4 pM	1.2 pM
BPTI variant carrying Lys at P2′ (P1′ Ala, P3′ Asp, P4′ Ile, P19′ Val) (designed binder)	1.6 pM	3.3 pM	1.3 pM	3.9 pM
BPTI variant carrying Ala at P2′ (P1′ Ala, P3′ Asp, P4′ Ile, P19′ Val) (designed binder)	0.3 pM	7.9 pM	2.2 pM	0.7 pM
